According to the DeepSol protein solubility set:

Assay: soluble on expression in E. coli; label from the status in PepcDB or PDB records

Sequence	soluble on expression in E. coli
MIRLTELKLPLNHEEGALLDAIAAKLKIPAQQVLSFTLFRRGYDARKKSDIQLIYTVDVEVANPEKLLAKFSKDQHVRPTPDMSYKFVAKAPENLPERPLVIGFGPCGLFAGLVLAQMGFNPIIVERGKEVRERTKDTFGFWRKRTLNTESNVQFGEGGAGTFSDGKLYSQVKDPNFYGRKVITEFVEAGAPEEILYVSKPHIGTFKLVTMIEKMRAKIIELGGEIRFSTRVDDIHMQDGQITGVILSNGEEIQSRHVVLAVGHSARDTFEMLHARGVYMEAKPFSVGFRIEHKQSMIDEARFGPSAGHPILGAADYKLVHHCKNGRTVYSFCMCPGGTVVAATSEEGRVVTNGMSQYSRAERNANSAIVVGISPEQDYPGDPLAGIRLQRELETNAYKLGGETYDAPAQKIGDFLKGRNPSELGDVQPSFTPGIKLTDLSKALPAFAVEAIREAIPEFDRQIKGFASEDGLLTGVETRTSSPVCIKRGKDFQSINLKGFYPAGEGAGYAGGILSAGIDGIKVAEAVARDMMARFAGELEHHHHHH	soluble
MSREDELLEKLDECENATAFLQVSNKIINLKLKALLPSVFVQDDLVKEYAVDPLLREDGPLVTTDVVSKLMFAMGKISLQTYADIGLYDQVLEYVVTQPEKIAFTDDVIYDFIKNQAVLSSQQDCFYLESINQLKFSSFESFSQMRYESLIKTVLKLSCEMLIERIEE	not soluble
MELTTKLVGTCSALDRLYQSGSAKCLFPRNSRAGLEAVLLNTAGGVTGGDRLSFSAQVRAGTRLSVTTQACERAYRAQPGETGQVRNHLSVATGARMNWLPQETILYDGSSLDRRLSVEIEPGASLLMVEPLVFGRIEMGESLNDARFCDRIEITRRGRPIFLDATRLQGGIAAHLAKPFIANGAGAMALLVYLAENAEAVLPRLRQMLPECAGASLIGEDLLVMRVLAADSFLLRQSLLPALRLLNNNEIPRCWTILEHHHHHH	not soluble
MNNREKEILAILRRNPLIQQNEIADMLQISRSRVAAHIMDLMRKGRIKGKGYILTEQEYCVVVGTINMDIRGMADIRYPQSASHPGTIHCSAGGVGRNIAHNLALLGRDVHLLSVIGDDFYGEMLLEETRRAGVNVSGCVRLHGQSTSTYLAIANRDDQTVLAINDTHLLEQLTPQLLNGSRDLLRHAGVVLADCNLTAEALEWVFTLADEIPVFVDTVSEFKAGKIKHWLAHIHTLKPTLPELEILWGQAITSDADRNTAVNALHQQGVQQLFVYLPDESVYCSEKDGEQFLLTAPAHTTVDSFGADDGFMAGLVYSFLEGYSFRDSARFAVACAAISRASGSLNNPTLSADNALSLVPMV	not soluble
MSYTTDEVHFLLDLDAEITAVAGAITRDHAMTKATAVKDAATFHKHFGANGRAAMELCASRTSAQGKLPHDWLMCHDSSQQATPLTVAQQRAHRIHRVCGSEAIVHDVTCSIGTEGAAITDLGMAYHGSDLDMSRLLMARHNVPTGLFFQADALKRASTSSDVIIADPARRAEGRRITKPDQLIPPLPQLVDHWRIATTTAAPMAIKCAPGLDFQEWDGLVSVVSVAGGVKEACLYTPELSEGLTREAIMIGPDQSVDVLNDRHGGEVPAGDPGTFIIDPDGAVVRAGLVQHYAAREQLWMLDEHIAYLTGDRIPQGRSGFRFIEMVGLKQLKSALVAHDAGSLEILVRGVDVDPDQLRKKLKLKGNTPMAVICTRIGRKGVALICHAREHSQT	not soluble
MGSDKIHHHHHHLTQLAQCSTSSISQSSIYLPYRDGQLHLRQLLPSAPDFSKTPILMLHGAMSNGRVFYSQSGRGLGCFLAKAGFVVYVLDTAGRGLSLPKIDRDSTLGQGEVIREQLPLVQQTILDLHQKACQEQTAQYDRKAVAPSQVHWCAHSWGGVLMASSLARYPELQQSVRSLLTFGSKRTIRVKSFKKWLMVDVFWNRLAPGLAMGQGYLAADKLRIGMDNESRASLVQSIDWVQGDWIDHDDGFDYAKAAKRADWPPAWFISGLNDTVLGHPEDVADMVEECGFKRVKSTLLSKENGFKHDYGHADMLTHLDATSDHFPKISDWYLSFDLAVLNG	not soluble
MGSDKIHHHHHHMWRNAQVNWDDYRCFLTLAKTGSFSRAARLLHVDHTTVGRRVAALEVDLGIKLVERLAREVRLTAEGHDLATLGLPVEEAMASVERAAAGGGAALAGPVHISAPPGLASLLLAPKLVSLHRQYPEIKITMSSDKDFANLNRREADIALRLSRPLSNGLVARKLRDIPFFFFASHTYDIAEDDWEFITYLQADDILPQQSWLMQHIGSRTIALRCSDAASQVQAAASGLGVALLPDYLGYNDTRLRKCPSRLTPPRRELWMVVHDDIRHAPRVRVVLDFLIGILTATQDLELPHASEA	not soluble
MAKKTSSLLSRRRTRRPGEPPLDLGSIPWLGYALDFGKDAASFLTRMKEKHGDIFTILVGGRYVTVLLDPHSYDAVVWEPRTRLDFHAYAIFLMERIFDVQLPHYSPSDEKARMKLTLLHRELQALTEAMYTNLHAVLLGDATEAGSGWHEMGLLDFSYSFLLRAGYLTLYGIEALPRTHESQAQDRVHSADVFHTFRQLDRLLPKLARGSLSVGDKDHMCSVKSRLWKLLSPARLARRAHRSKWLESYLLHLEEMGVSEEMQARALVLQLWATQGNMGPAAFWLLLFLLKNPEALAAVRGELESILWQAEQPVSQTTTLPQKVLDSTPVLDSVLSESLRLTAAPFITREVVVDLAMPMADGREFNLRRGDRLLLFPFLSPQRDPEIYTDPEVFKYNRFLNPDGSEKKDFYKDGKRLKNYNMPWGAGHNHCLGRSYAVNSIKQFVFLVLVHLDLELINADVEIPEFDLSRYGFGLMQPEHDVPVRYRIRPHHHH	soluble
MSVFTPLARPELETFLAPYGLGRLLDYQGIAAGSENTNYFISLEQGEFVLTLVERGPVQEMPFFIELLDVLHDANLPVPYALRTTDGQALRELAGKPALLQPRLPGKHISEPNTQHCVQIGELLANLHLATREQVLERKTDRGLDWMLSEGRNFLSHLGETQRALLEKSLQEIEDLKPQIMALPRANLHADLFRDNVLFEGTHLTGLIDFYNACSGPMLYDLAIALNDWCSRENGQLDAVRARALLGAYAGLRPFTAAESKLWATMLRIACVRFWLSRLIAAETFAGQDVLIHDPVEFEQRLAERQTPHIALPFAL	soluble
MGSDKIHHHHHHMRVLVKLSGEALSGEGGRGFDPERVNYIVNEIKSAIEEGFKIGIVVGAGNLFRGVELKNLTMTRADQIGLLGTVMNSVYLKDIFERSGLKARIYSQIVNLPDVERVNYDSIESALRENSILIFAGGTSNPFFTTDTAAVLRAQEMRAKLVVKATKVDGVYDKDPKKFPDAKKIPHLTFSEAMKMGLKVMDAEAFALCKKLGITVKVINFFEPGTLLKALKGEDVGSTVVPD	not soluble
MTAQTLYDKLWNSHVVREEEDGTVLLYIDRHLVHEVTSPQAFEGLKMAGRKLWRIDSVVSTADHNTPTGDWDKGIQDPISKLQVDTLDKNIKEFGALAYFPFMDKGQGIVHVMGPEQGATLPGMTVVCGDSHTSTHGAFGALAHGIGTSEVEHTMATQCITAKKSKSMLISVDGKLKAGVTAKDVALYIIGQIGTAGGTGYAIEFGGEAIRSLSMESRMTLCNMAIEAGARSGMVAVDQTTIDYVKDKPFAPEGEAWDKAVEYWRTLVSDEGAVFDKEYRFNAEDIEPQVTWGTSPEMVLDISSKVPNPAEETDPVKRSGMERALEYMGLEAGTPLNEIPVDIVFIGSCTNSRIEDLREAAAIAKDRKKAANVQRVLIVPGSGLVKEQAEKEGLDKIFIEAGFEWREPGCSMCLAMNADRLTPGQRCASTSNRNFEGRQGNGGRTHLVSPAMAAAAAVTGRFTDIRMMA	not soluble
MSLVKLKNLTLYLWAVFVVGCTSVPEVSTQAQNPANNKTVSLAELNWQELSLPADINFEFNEKSQVLLDNNSTGPVASFVIPTDRGPVDMVLTSHVGKELTLYEPNVLVTNSKGGVFYHIKSNEFKYIPARLLDGDRVQKQFTIVPQIGADQVNVLIYTTSEDLKGSTTVIHPAKAFAIGTGTQPPMIPDLTAVHSEYGQLNLTVTAVSLTNRTPIRPAIDYVPEIEAKSAYYLNSIQNSVEQGDIDHAMTLVSEAEKLGIPSARATFINAVQSRNEHKEGHHHHHH	soluble
AHHHHHHGSKIAIPTNGGGREDTVAPLFARAPAFYIAEVDEKGNIISEKVIQNPAATAGRGAGPIAVQMLINEGVDTIVAPQVVPNALGAIQAAGIRVYYVTPGTPVEEAIKVATTGQGGQLPSLPQIPTPVTPAPAMYGPVYPPFGWGRGWGKGRGWGRGWGSILGYCPWTGMPSRRALRWYYGWW	not soluble
AHHHHHHGSVDYELLKKVVEAPGVSGYEFMGIRDVVIEEIKDYVDEVNVDKLGNVIAHKKGEGPKVMIAAHMDQIGLMVTHIEKNGFLRVAPIGGIDPRTLIAQRFKVWIDKGKFIYGVGGSVPPHIQKPEDRKKAPDWDQIFIDIGAESKEEAEELGVKIGTIVTWDGRLERLGKHRFVSIAFDDRIAVYTLIETARQLQDTKADIYFVATVQEEVGLRGARTSAFGINPDYGFAIDVTIAADVPGTPEHKQVTQLGKGTAIKIMDRSVICHPTIVRWMEELAKKYEIPYQWDILLGGGTDAGAIHLTRAGVPTGAVSIPARYIHSNAEVVDERDVDASVKLMVKVLEHIHELKI	soluble
VSAADTAEDLPEQFRIRRDKRARLLAQGRDPYPVAVPRTHTLAEVRAAHPDLPIDTATEDIVGVAGRVIFARNSGKLCFATLQDGDGTQLQVMISLDKVGQAALDAWKADVDLGDIVYVHGAVISSRRGELSVLADCWRIAAKSLRPLPVAHKEMSEESRVRQRYVDLIVRPEARAVARLRIAVVRAIRTALQRRGFLEVETPVLQTLAGGAAARPFATHSNALDIDLYLRIAPELFLKRCIVGGFDKVFELNRVFRNEGADSTHSPEFSMLETYQTYGTYDDSAVVTRELIQEVADEAIGTRQLPLPDGSVYDIDGEWATIQMYPSLSVALGEEITPQTTVDRLRGIADSLGLEKDPAIHDNRGFGHGKLIEELWERTVGKSLSAPTFVKDFPVQTTPLTRQHRSIPGVTEKWDLYLRGIELATGYSELSDPVVQRERFADQARAAAAGDDEAMVLDEDFLAALEYGMPPCTGTGMGIDRLLMSLTGLSIRETVLFPIVRPHSN	not soluble
MGSDKIHHHHHHMSIYNSIGLHYSKTRVPDIRIVNKIIDLLNLPKNSIIADIGAGTGGYSLALANKGFLVNAIEPSLVMQKQAVEHPQVKWFTGYAENLPLLDNSVDTVVSILAIHHFSHLPKAFQEMHRIIKNGAIILLTFDIRLAQKIWLYDYFPFLWEDALQFLPLNEQINLIQINTKRRVEAIPLLLPYDLSDLFAAAGWRRPELYLQAEVRAGISSLALANQDLVDQGVKLLTADLSSEKWRKQYGDIHNLTEIDIGYRFIHTTLNN	not soluble
MVQIIFDSKTGNVQRFVNKTGFQQIRKVDEMDHVDTPFVLVTYTTNFGQVPASTQSFLEKYAHLLLGVAASGNKVWGDNFAKSADTISRQYQVPILHKFELSGTSKDVELFTQEVERVVTKSSAKMDPVK	soluble
HAEVIASGRLEKCVVDGVTEELDCQEKVVVTLTVGNGQSLQTEALEFSLSCLNSPDGRCPCSCSAADPTCACRDLAAPLRVSLTKSPLWASYPLQYLSSFNWKPLEVILRPSNKVCKDGDWEDSPTCGWFSQGGVRVADSQGFCCECSSSQVWDDTFGSSKERTRANLDCDFWSDPLDILIGRKPVSAHCLTFDPQWYSGYELGAASLQFEIAITVEVPTAPSPTTATTSATPRTNNSSSANSTNSTNSPAPQFLSPPAPSTREVLHLGPSVPLASSASRLLSAKLLGDLAMYTQLPAISNQVLMVPQPPAAAAATGSPLDATLATNRSAWMLLDKTMLSMDGLACDKVGTGFSAFRYQPSGCGRAPQACLSGQLKDLWEADLARIADGRVPLYMITRFTGGSDTTLQSFSGGPLSFALPVTSHSQSLVTLSVAADGVRLVTNRSPGKITGAAVCRFAGTSCGGFEAVAARGYIYVNITNTGRLDSDYTLTVSNCSSNVRPIEARTLAVRAGSAASLDPPMELYVEDQAAAAARTCTVSLYDSVGAVTDSLTLSFYTNATQLVVKPSGGYNGTGDGAGVKRNGTDCSTACTNPIDVLCFVTKKCWSKFGR	not soluble
